Columns and labels:
[1] = Effect of pH on insulin/DEAE-dextran solutions (pH and appearance); format: physicochemical
Method: Solutions containing DEAE-Dextran 1% w/v and Na-Insulin 167 IU/ml were prepared, separately and combined, in phosphate buffer (pH 7.3) and their pH measured using a Gallenkamp pH stick. The appearance of each solution was noted. The effect of addition of 1M sodium hydroxide solution (NaOH) or 0.1M hydrochloric acid (HCl) was determined.

[2] = Intranasal absorption of insulin solutions in anaesthetised rats: blood glucose; format: in vivo, rat (male Wistar); settings: phosphate buffer pH 7.3; for Blood Glucose Levels: 120 minutes after intranasal administration, 16.7 IU/kg insulin, level at administration about 3.5 to 4.0
Method: A rat in vivo experimental model, modified from that originally described by Hirai et al., Int. […] Male Wistar rats (Bantin and Kingman) of approximate weight 200-250 g, fasted overnight for about 20 hours, are anesthetized by i.p. injection of 80 mg/kg pentobarbitone sodium (60 mg/ml Sagatal™, May and Baker) with further i.p. injections of 0.05 ml when necessary to maintain a suitable level of anaesthesia. The rats are tracheotomized, the esophagus sealed and the carotid artery and jugular vein cannulated.
The DEAE-dextran used in these experiments has a molecular weight of 500,000.
This will give the same end solutions. […] An insulin solution containing the Laureth-9 enhancer system was prepared in a similar way.
A volume of 20 μl was administered.
Blood samples of 0.2 ml were collected in Fluoride oxalate tubes from the carotid artery at 10 and 5 min. prior to the insulin administration and at 5, 15, 30, 45, 60, 90, 120, 180, 240 and 300 min. post-administration. The samples were kept for a short time on crushed ice until analyzed on a Yellow Springs 23 AM glucose analyser by the glucose oxidase method.

Insulin alone: semisynthetic human Na-insulin, 167 IU/ml in phosphate buffer
pH at which solution became turbid on addition of acid ([1]; 0.1M HCl): 6.65
pH at which solution cleared / was clear on addition of acid ([1]; 0.1M HCl): 4.14
appearance on addition of 1.0M NaOH ([1]; 1.0M NaOH): no effect on solution appearance which remained clear
pH of solution ([1]; DEAE-dextran 1% w/v and/or Na-insulin 167 IU/ml in phosphate buffer (pH 7.3)): 7.38
appearance of solution ([1]; as prepared in phosphate buffer, no acid or base added): clear
Blood Glucose Levels [2]: ~5.1 mmol/L
Blood Glucose Levels ([2]; listed as insulin solution alone): about 5 mmol/l
effect on blood glucose level (in words) ([2]; intranasal): does not significantly lower the blood glucose level

— patent US5744166A, “Drug delivery compositions” (Danbiosyst UK Limited, priority 1989, dated 1998)
